Reference: patent US20210155907

How the values were obtained:
Assay in all cases: cell_activity
[1] = test system: TAL1-Tet1-CD (TAL effector repeat array to KLF4 site 1, Gly3Ser linker, Tet1 catalytic domain); conditions: CpG demethylation 15 bp downstream of site (32.5% at 9 bp); K562 cells, bisulfite sequencing
[2] = test system: TAL2-Tet1-CD (KLF4 site 2); conditions: CpG demethylation 17 bp downstream (28.2% at 27 bp, none at 1 and 3 bp); K562 cells
[3] = test system: TAL3-Tet1-CD (KLF4 site 3); conditions: CpG demethylation at 22, 36, 116 and 143 bp downstream; K562 cells
[4] = test system: TAL4-Tet1-CD (KLF4 site 4); conditions: CpG demethylation 13 bp downstream, no other CpGs significant; K562 cells
[5] = test system: KLF4 six-finger ZF-Tet1 fusion (engineered); conditions: CpG demethylation 6 bp downstream (25% at 24 bp); K562 cells; one of two KLF4 ZF-Tet1 proteins

GGGGGCGGGCGGAGCCTTGGGGTCACCAAGAGCCACTGAACGAGGGTAAGGAGCGGCCACCGCGCGGACTCCGCAACCTTCCCGGGATAGCTTCCGTGTCCTTGGCTCAGCTGTGTATGCCCGTGGTGCGAGCACTGCGGAGCCGCCTGGGGCGCAAGCCGGGTCTTCACCAGTCCCCGGGCGCGCTGTCGGTAGGGCGGGCGCTCTCGGGCCACCGGGCGGGAGGTGGCCGCGTCCCCAGACACTGGCTGGGCCAGAGTGAGTTTAGCGCGTAGGCGGC (double strand) [KLF4 intron 1-2 TAL site 1]
activity [1]: 45.4%

GGGGGCGGGCGGAGCCTTGGGGTCACCAAGAGCCACTGAACGAGGGTAAGGAGCGGCCACCGCGCGGACTCCGCAACCTTCCCGGGATAGCTTCCGTGTCCTTGGCTCAGCTGTGTATGCCCGTGGTGCGAGCACTGCGGAGCCGCCTGGGGCGCAAGCCGGGTCTTCACCAGTCCCCGGGCGCGCTGTCGGTAGGGCGGGCGCTCTCGGGCCACCGGGCGGGAGGTGGCCGCGTCCCCAGACACTGGCTGGGCCAGAGTGAGTTTAGCGCGTAGGCGGC (double strand) [KLF4 intron 1-2 TAL site 2]
activity [2]: 36.5%

GGGGGCGGGCGGAGCCTTGGGGTCACCAAGAGCCACTGAACGAGGGTAAGGAGCGGCCACCGCGCGGACTCCGCAACCTTCCCGGGATAGCTTCCGTGTCCTTGGCTCAGCTGTGTATGCCCGTGGTGCGAGCACTGCGGAGCCGCCTGGGGCGCAAGCCGGGTCTTCACCAGTCCCCGGGCGCGCTGTCGGTAGGGCGGGCGCTCTCGGGCCACCGGGCGGGAGGTGGCCGCGTCCCCAGACACTGGCTGGGCCAGAGTGAGTTTAGCGCGTAGGCGGC (double strand) [KLF4 intron 1-2 TAL site 3]
activity [3]: > 25%

GGGGGCGGGCGGAGCCTTGGGGTCACCAAGAGCCACTGAACGAGGGTAAGGAGCGGCCACCGCGCGGACTCCGCAACCTTCCCGGGATAGCTTCCGTGTCCTTGGCTCAGCTGTGTATGCCCGTGGTGCGAGCACTGCGGAGCCGCCTGGGGCGCAAGCCGGGTCTTCACCAGTCCCCGGGCGCGCTGTCGGTAGGGCGGGCGCTCTCGGGCCACCGGGCGGGAGGTGGCCGCGTCCCCAGACACTGGCTGGGCCAGAGTGAGTTTAGCGCGTAGGCGGC (double strand) [KLF4 intron 1-2 TAL site 4]
activity [4]: 37%

KLF4 locus ZF site
activity [5]: 68%
